Patent US20240288453A1 (NATIONAL UNIVERSITY CORPORATION TOKAI NATIONAL HIGHER …, published 2024)

Molecular target: T1, mouse TfR (mouse, UniProt Q62351 89-763, limits assumed)
T1 construct: The assay and the form of the protein are not described
Test: not described

T1 sequence (Q62351 89-763 limits assumed): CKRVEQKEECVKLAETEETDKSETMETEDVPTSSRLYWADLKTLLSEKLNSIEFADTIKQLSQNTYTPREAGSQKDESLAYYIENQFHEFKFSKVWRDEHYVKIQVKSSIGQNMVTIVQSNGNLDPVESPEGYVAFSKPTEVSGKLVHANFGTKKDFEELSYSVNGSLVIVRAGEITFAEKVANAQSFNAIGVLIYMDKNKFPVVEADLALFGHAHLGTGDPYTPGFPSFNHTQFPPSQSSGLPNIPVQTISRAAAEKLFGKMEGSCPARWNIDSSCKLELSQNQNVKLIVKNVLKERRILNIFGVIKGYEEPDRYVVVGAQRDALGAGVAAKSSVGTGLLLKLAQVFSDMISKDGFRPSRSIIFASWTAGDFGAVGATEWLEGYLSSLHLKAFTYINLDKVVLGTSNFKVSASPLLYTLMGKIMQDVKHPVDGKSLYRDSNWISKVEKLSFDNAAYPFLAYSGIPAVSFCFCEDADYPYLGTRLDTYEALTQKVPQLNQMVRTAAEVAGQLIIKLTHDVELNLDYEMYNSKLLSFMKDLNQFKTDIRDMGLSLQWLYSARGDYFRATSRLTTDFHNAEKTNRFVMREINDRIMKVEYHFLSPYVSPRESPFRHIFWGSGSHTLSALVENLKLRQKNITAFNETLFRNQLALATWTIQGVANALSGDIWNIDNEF

B1: TfR436 antibody (antibody, V domains shown)
VH: DVQLVQSGGGVVQPGRSLRLSCAASGFPFKSYGMHWVRQAPGKGLEWVAVISYDGSNKYYADSVKGRFTISRDNSKNTLYLQMNSLRGEDTAVYYCARDSNFWSGYYSPVDVWGQGTTVTVSS
VL: NFMLTQPHSVSESPGKTVTISCTRSSGSIASNSVQWYQQRPGSAPITVIYEDTQRPSGVPDRFSGSIDSSSNSASLTISGLQTEDEADYYCQSYDSAYHWVFGGGTKLAVL
notes: The antibody is the one of paragraphs 0090 and 0091 of WO2014/073641 and was detected with an anti-human IgG Fc gamma secondary antibody; also called parent antibody
B1: no binding.
